Measurements: US20030171551A1 (published 2003)

Target: T1, soluble extracellular domain of HER2/neu (ECD) (UniProt P04626 23-652, limits assumed)
T1 construct: extracellular domain; Immobilized on the IAsys microcuvette; also called soluble HER2/neu antigen
Assay: IAsys optical biosensor, HER2/neu ECD immobilized on the cuvette

Kd: 53 nM
B1: RANTES.Her2.IgG3 (other)
chain: SPYSSDTTPCCFAYIARPLPRAHIKEYFYTSGKCSNPAVVFVTRKNRQVCANPEKKWVREYINSLEMS
